Experimental data as given in US20240116985A1, “STAPLED PEPTIDES AND METHODS THEREOF” (priority 2020, published 2024).
Starred links: 1 amine or outer side, 2 acyl side, 3 side chain; linkers in the order of their positions; H or OH if unused. Positions of bridges follow the written chain, without caps; N, C: chain ends. Non-standard residues stand in square brackets, D forms with d. Primed or numbered codes have the meaning given here. ξ: configuration not given here. B5(15) = 2-amino-2-(pent-4-en-1-yl)hept-6-enoic acid (2,2-bis(4-pentenyl)glycine), stitching residue bearing two staples, C=CCCCC(CCCC=C)(N[*:1])C(=O)[*:2]; PyrS2″ = (S)-3-amino-1-((pent-4-en-1-yloxy)carbonyl)pyrrolidine-3-carboxylic acid (stapling residue), C=CCCCOC(=O)N1CC[C@@](N[*:1])(C(=O)[*:2])C1; B5(18) = 2,2-bis(4-pentenyl)glycine (2-amino-2-(pent-4-en-1-yl)hept-6-enoic acid), stitching residue, C=CCCCC(CCCC=C)(N[*:1])C(=O)[*:2]; B5(23) = 2-amino-2-(pent-4-en-1-yl)hept-6-enoic acid (2,2-bis(4-pentenyl)glycine), stitching residue, C=CCCCC(CCCC=C)(N[*:1])C(=O)[*:2]; B5(4) = 2,2-bis(4-pentenyl)glycine = 2-amino-2-(pent-4-en-1-yl)hept-6-enoic acid (stitching residue), C=CCCCC(CCCC=C)(N[*:1])C(=O)[*:2]; B5(5) = 2,2-bis(4-pentenyl)glycine, 2-amino-2-(pent-4-en-1-yl)hept-6-enoic acid (stitching residue), C=CCCCC(CCCC=C)(N[*:1])C(=O)[*:2]; B5(21) = 2-amino-2-(pent-4-en-1-yl)hept-6-enoic acid, bis(4-pentenyl)glycine (stitching residue), C=CCCCC(CCCC=C)(N[*:1])C(=O)[*:2]; TfeGA = (S)-2-amino-3-((carboxymethyl)(2,2,2-trifluoroethyl)amino)propanoic acid, O=C([C@H](CN(CC(=O)[*:3])CC(F)(F)F)N[*:1])[*:2]; PyrS2 = (S)-3-amino-1-((pent-4-en-1-yloxy)carbonyl)pyrrolidine-3-carboxylic acid, C=CCCCOC(=O)N1CC[C@@](N[*:1])(C(=O)[*:2])C1; B5(3) = 2,2-bis(4-pentenyl)glycine (stitching residue), C=CCCCC(CCCC=C)(N[*:1])C(=O)[*:2]; B5 = 2-amino-2-(pent-4-en-1-yl)hept-6-enoic acid, C=CCCCC(CCCC=C)(N[*:1])C(=O)[*:2]; Phe(2-Cl) = N[C@@H](Cc1ccccc1Cl)C(=O)O; Bta = N[C@@H](Cc1csc2ccccc12)C(=O)O; αAllylPro = C=CC[C@@]1(C(=O)O)CCCN1; tBuAla = CC(C)(C)C[C@H](N)C(=O)O; 2Thi = N[C@@H](Cc1cccs1)C(=O)O; 3Thi = N[C@@H](Cc1ccsc1)C(=O)O; Cha = N[C@@H](CC1CCCCC1)C(=O)O; S8 = C=CCCCCCC[C@](C)(N)C(=O)O; hLeu = CC(C)CC[C@H](N)C(=O)O; ξβ3hD = NC(CC(=O)O)CC(=O)O; hSer = N[C@@H](CCO)C(=O)O; Aib = CC(C)(N)C(=O)O

B1: I-485 (peptide)
peptide: Ac-[αAllylPro]DI[B5(4)]DEAA[2Thi]Q[S8]F[Bta]Q-NH2
modifications: staple 1-4, 4-11
B2: I-1555 (peptide)
peptide: Ac-[αAllylPro]D[tBuAla][B5(23)]NNAAFN[PyrS2][3Thi][Bta]Q-NH2
modifications: staple 1-4, 4-11
B3: I-1001 (peptide)
peptide: Ac-[αAllylPro]D[tBuAla][B5(3)][3Thi][TfeGA]AAFN[PyrS2″]D[Bta]Q-NH2
modifications: staple 1-4, 4-11
B4: I-1018 (peptide)
peptide: Ac-[αAllylPro]D[tBuAla][B5(5)]DNAAFS[PyrS2″][Phe(2-Cl)][Bta]Q-NH2
modifications: staple 1-4, 4-11
B5: I-1013 (peptide)
peptide: Ac-[αAllylPro]D[tBuAla][B5(5)]DDAAFT[PyrS2″][Phe(2-Cl)][Bta]Q-NH2
modifications: staple 1-4, 4-11
B6: I-1536 (peptide)
peptide: Ac-[αAllylPro]D[hLeu][B5(15)]DEAAFL[S8]F[Bta]Q-NH2
modifications: staple 1-4, 4-11
B7: I-1014 (peptide)
peptide: Ac-[αAllylPro]D[tBuAla][B5(5)]DNAAFT[PyrS2″][Phe(2-Cl)][Bta]Q-NH2
modifications: staple 1-4, 4-11
B8: I-1003 (peptide)
peptide: Ac-[αAllylPro]D[tBuAla][B5(5)]D[TfeGA]AFFN[PyrS2″][Phe(2-Cl)][Bta]Q-NH2
modifications: staple 1-4, 4-11
B9: I-1005 (peptide)
peptide: Ac-[αAllylPro]D[tBuAla][B5(5)]D[TfeGA]AIFN[PyrS2″][Phe(2-Cl)][Bta]Q-NH2
modifications: staple 1-4, 4-11
B10: I-1538 (peptide)
peptide: Ac-[αAllylPro]D[hLeu][B5(15)]DEAAF[hSer][S8]F[Bta]Q-NH2
modifications: staple 1-4, 4-11; not fully specified; printed as Ac-PL3-Asp-Hleu-B5-Asp-Glu-Ala-Ala-Phe-Hse-S8-Phe-BztA-Gln-NH2
B11: I-1006 (peptide)
peptide: Ac-[αAllylPro]D[tBuAla][B5(5)]D[TfeGA]AKFN[PyrS2″][Phe(2-Cl)][Bta]Q-NH2
modifications: staple 1-4, 4-11
B12: I-1537 (peptide)
peptide: Ac-[αAllylPro]D[hLeu][B5(15)]DEAAF[hSer][S8]F[Bta]Q-NH2
modifications: staple 1-4, 4-11; not fully specified; printed as Ac-PL3-Asp-Hleu-B5-Asp-Glu-Ala-Ala-Phe-Hse-S8-Phe-BztA-Gln-NH2
B13: I-1179 (peptide)
peptide: Ac-[αAllylPro]D[tBuAla][B5(21)]DD[Aib][Aib]FL[PyrS2″][3Thi][Bta]Q-NH2
modifications: staple 1-4, 4-11; also: earlier eluting HPLC peak (staple isomer composition)
B14: I-1175 (peptide)
peptide: Ac-[αAllylPro]D[Cha][B5(4)]DTAAFT[PyrS2″][Phe(2-Cl)][Bta]Q-NH2
modifications: staple 1-4, 4-11
B15: I-1166 (peptide)
peptide: Ac-[αAllylPro]D[tBuAla][B5(4)]DTAAFT[PyrS2″][3Thi][Bta]Q-NH2
modifications: staple 1-4, 4-11
B16: I-1171 (peptide)
peptide: Ac-[αAllylPro]D[tBuAla][B5(4)]DTAAFL[PyrS2″][3Thi][Bta]S-NH2
modifications: staple 1-4, 4-11
B17: I-1173 (peptide)
peptide: Ac-[αAllylPro]D[Cha][B5(4)]DTAAFT[PyrS2″][3Thi][Bta]Q-NH2
modifications: staple 1-4, 4-11
B18: I-1167 (peptide)
peptide: Ac-[αAllylPro]D[tBuAla][B5(4)]DTAAFL[PyrS2″][3Thi][Bta]Q-NH2
modifications: staple 1-4, 4-11
B19: I-1178 (peptide)
peptide: Ac-[αAllylPro]D[tBuAla][B5(4)]DDA[Aib]FL[PyrS2″][3Thi][Bta]Q-NH2
modifications: staple 1-4, 4-11
B20: I-1174 (peptide)
peptide: Ac-[αAllylPro]D[Cha][B5(4)]DTAAFL[PyrS2″][3Thi][Bta]Q-NH2
modifications: staple 1-4, 4-11
B21: I-1444 (peptide)
peptide: Ac-[αAllylPro]D[tBuAla][B5(4)]DLAAFL[PyrS2″][3Thi][Bta]Q-NH2
modifications: staple 1-4, 4-11
B22: I-1441 (peptide)
peptide: Ac-[αAllylPro]D[tBuAla][B5(4)]DFAAFL[PyrS2″][3Thi][Bta]Q-NH2
modifications: staple 1-4, 4-11
B23: I-1170 (peptide)
peptide: Ac-[αAllylPro]D[tBuAla][B5(4)]DTAAFT[PyrS2″][3Thi][Bta]S-NH2
modifications: staple 1-4, 4-11
B24: I-1169 (peptide)
peptide: Ac-[αAllylPro]D[tBuAla][B5(21)]DTAAFL[PyrS2″][Phe(2-Cl)][Bta]Q-NH2
modifications: staple 1-4, 4-11
B25: I-1177 (peptide)
peptide: Ac-[αAllylPro]D[tBuAla][B5(4)]DD[Aib]AFL[PyrS2″][3Thi][Bta]Q-NH2
modifications: staple 1-4, 4-11
B26: I-1176 (peptide)
peptide: Ac-[αAllylPro]D[Cha][B5(21)]DTAAFL[PyrS2″][Phe(2-Cl)][Bta]Q-NH2
modifications: staple 1-4, 4-11
B27: I-1161 (peptide)
peptide: Ac-[αAllylPro][ξβ3hD][tBuAla][B5(4)]D[TfeGA]AAFN[PyrS2″][3Thi][Bta]Q-NH2
modifications: staple 1-4, 4-11
B28: I-1168 (peptide)
peptide: Ac-[αAllylPro]D[tBuAla][B5(4)]DTAAFT[PyrS2″][Phe(2-Cl)][Bta]Q-NH2
modifications: staple 1-4, 4-11
B29: I-1172 (peptide)
peptide: Ac-[αAllylPro]D[tBuAla][B5(4)]DTAAFL[PyrS2″][Phe(2-Cl)][Bta]S-NH2
modifications: staple 1-4, 4-11
B30: I-796 (peptide)
peptide: Ac-[αAllylPro]F[tBuAla][B5]DDAADN[PyrS2][3Thi][Bta]H-NH2
modifications: staple 1-4, 4-11

Biological target: full-length beta-Catenin (Uniprot ID P35222) (Homo sapiens (Human)) (UniProt P35222)
Test: cell-based or functional assay
Target sequence in this assay (P35222 2-781 limits assumed): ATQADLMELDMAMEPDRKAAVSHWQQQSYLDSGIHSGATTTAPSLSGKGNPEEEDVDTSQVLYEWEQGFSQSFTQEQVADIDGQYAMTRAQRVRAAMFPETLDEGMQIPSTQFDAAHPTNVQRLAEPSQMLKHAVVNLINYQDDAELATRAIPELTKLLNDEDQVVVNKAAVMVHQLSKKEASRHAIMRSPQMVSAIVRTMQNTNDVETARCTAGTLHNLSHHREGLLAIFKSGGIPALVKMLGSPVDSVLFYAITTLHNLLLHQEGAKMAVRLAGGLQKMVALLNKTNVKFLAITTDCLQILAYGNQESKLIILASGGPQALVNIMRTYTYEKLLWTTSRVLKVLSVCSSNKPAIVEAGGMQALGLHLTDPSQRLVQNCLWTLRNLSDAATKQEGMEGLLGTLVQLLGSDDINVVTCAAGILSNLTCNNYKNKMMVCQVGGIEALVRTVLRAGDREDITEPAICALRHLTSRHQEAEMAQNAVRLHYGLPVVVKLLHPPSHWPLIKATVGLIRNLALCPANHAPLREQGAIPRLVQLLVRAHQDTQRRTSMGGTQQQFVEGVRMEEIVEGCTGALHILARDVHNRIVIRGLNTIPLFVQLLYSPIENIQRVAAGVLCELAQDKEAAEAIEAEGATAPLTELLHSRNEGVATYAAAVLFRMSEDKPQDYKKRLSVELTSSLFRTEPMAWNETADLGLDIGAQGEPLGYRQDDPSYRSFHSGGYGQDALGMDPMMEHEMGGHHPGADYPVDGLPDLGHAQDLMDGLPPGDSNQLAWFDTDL

| Binder | NanoBRET Abs IC50 |
| --- | --- |
| B1 | 11300 nM |

Biological target: full-length beta-Catenin (Uniprot ID P35222) (Homo sapiens (Human)) (UniProt P35222)
Test: fluorescence polarization competition; displaces 5FAM-TCF4(10-53) from full-length beta-catenin
Target sequence in this assay (P35222 2-781 limits assumed): as above

| Binder | IC50 | EC50 |
| --- | --- | --- |
| B2 | 180 nM | – |
| B3 | – | 5530 nM |
| B4 | – | 26 nM |
| B5 | – | 8 nM |
| B6 | 42 nM | – |
| B7 | – | 19 nM |
| B8 | – | 38 nM |
| B9 | – | 42 nM |
| B10 | 21 nM | – |
| B11 | – | 5 nM |
| B12 | 31 nM | – |

Biological target: full-length beta-Catenin (Uniprot ID P35222) (Homo sapiens (Human)) (UniProt P35222)
Test: fluorescence polarization competition; full-length beta-catenin, competitor 5FAM-TCF4(10-53) probe

| Binder | IC50 |
| --- | --- |
| B13 | 346 nM |
| B14 | 24 nM |
| B15 | 14 nM |
| B16 | 70 nM |
| B17 | 12 nM |
| B18 | 34 nM |
| B19 | 54.5 nM |
| B20 | 43 nM |
| B21 | 6560 nM |
| B22 | 327 nM |
| B23 | 15 nM |
| B24 | 159 nM |
| B25 | 25 nM |
| B26 | 169 nM |
| B27 | 24 nM |
| B28 | 25 nM |
| B29 | 45 nM |

Biological target: full-length beta-Catenin (Uniprot ID P35222) (Homo sapiens (Human)) (UniProt P35222)
Test: fluorescence polarization competition; full-length beta-catenin; competitor 5FAM-TCF4(10-53) probe
Target sequence in this assay (P35222 whole entry, one chain of several): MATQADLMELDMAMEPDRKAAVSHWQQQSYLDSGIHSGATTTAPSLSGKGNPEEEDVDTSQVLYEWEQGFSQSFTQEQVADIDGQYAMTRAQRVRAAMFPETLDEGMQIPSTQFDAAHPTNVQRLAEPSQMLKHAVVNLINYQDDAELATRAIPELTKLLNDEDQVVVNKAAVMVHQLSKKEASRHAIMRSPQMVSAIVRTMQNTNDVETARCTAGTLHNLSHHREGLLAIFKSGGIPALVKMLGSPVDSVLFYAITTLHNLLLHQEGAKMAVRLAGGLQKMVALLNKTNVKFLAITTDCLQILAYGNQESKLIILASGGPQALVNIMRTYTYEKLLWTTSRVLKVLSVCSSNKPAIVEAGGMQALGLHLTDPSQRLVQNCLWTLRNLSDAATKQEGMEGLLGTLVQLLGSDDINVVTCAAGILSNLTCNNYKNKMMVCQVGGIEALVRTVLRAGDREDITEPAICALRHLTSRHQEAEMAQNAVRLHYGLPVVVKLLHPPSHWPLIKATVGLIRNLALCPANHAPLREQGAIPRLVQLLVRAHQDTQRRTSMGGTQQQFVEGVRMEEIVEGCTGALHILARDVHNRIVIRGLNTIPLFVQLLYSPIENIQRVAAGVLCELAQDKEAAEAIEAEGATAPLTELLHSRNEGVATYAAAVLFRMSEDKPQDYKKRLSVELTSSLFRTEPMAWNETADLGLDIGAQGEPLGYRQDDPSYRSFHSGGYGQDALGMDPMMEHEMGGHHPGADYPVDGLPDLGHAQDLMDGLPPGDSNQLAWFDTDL

| Binder | EC50 |
| --- | --- |
| B13 | 346 nM |
| B14 | 24 nM |
| B15 | 14 nM |
| B16 | 70 nM |
| B17 | 12 nM |
| B18 | 34 nM |
| B19 | 54.5 nM |
| B20 | 43 nM |
| B23 | 15 nM |
| B24 | 159 nM |
| B25 | 25 nM |
| B26 | 169 nM |
| B27 | 24 nM |
| B28 | 25 nM |
| B29 | 45 nM |

Biological target: full-length beta-Catenin (Uniprot ID P35222) (Homo sapiens (Human)) (UniProt P35222)
Test: fluorescence polarization competition; 10 nM full-length beta-catenin + 10 nM 5FAM-TCF4(10-53) probe
Target sequence in this assay (P35222 whole entry, one chain of several): as above

| Binder | IC50 |
| --- | --- |
| B3 | 7220 nM |
| B4 | 26 nM |
| B5 | 8 nM |
| B7 | 19 nM |
| B8 | 38 nM |
| B9 | 42 nM |
| B11 | 5 nM |

Biological target: full-length beta-Catenin (Uniprot ID P35222) (Homo sapiens (Human)) (UniProt P35222)
Test: fluorescence polarization competition; displacement of 5FAM-TCF4(10-53) from full-length beta-catenin
Target sequence in this assay (P35222 whole entry, one chain of several): as above

| Binder | EC50 |
| --- | --- |
| B1 | 34 nM |

Biological target: beta-catenin (Homo sapiens (Human)) (UniProt P35222)
Sequence (P35222 whole entry): as the sequence (P35222 whole entry, one chain of several) above
Test: fluorescence polarization competition; full-length beta-catenin with 5FAM-TCF4(10-53) probe as competitor

| Binder | EC50 |
| --- | --- |
| B21 | 6560 nM |
| B22 | 327 nM |

Biological target: full-length beta-Catenin (Uniprot ID P35222) (Homo sapiens (Human)) (UniProt P35222)
Test: as above
Target sequence in this assay (P35222 2-781 limits assumed): as the sequence (P35222 2-781 limits assumed) above

| Binder | IC50 |
| --- | --- |
| B1 | 34 nM |

Biological target: full-length beta-Catenin (Uniprot ID P35222) (Homo sapiens (Human)) (UniProt P35222)
Test: fluorescence polarization competition: peptide titrated against 10 nM full-length beta-catenin + 10 nM 5FAM-TCF4(10-53) probe
Target sequence in this assay (P35222 2-781 limits assumed): as above

| Binder | EC50 |
| --- | --- |
| B30 | 8140 nM |
